Key:
[1] = test system: GLIC–nAChα7–ICD chimeras and wild-type GLIC; type: cell-based, G. violaceus GLIC / human nAChRα7; conditions: pH 7.5 to 5, after 48 h
GLIC–Glyα1–ICD chimeras = experiment: Proton concentration–response; type: cell-based, G. violaceus GLIC / rat Glyα1; conditions: proton activation (pH50), GLIC–Glyα1–ICD set, TEVC, −60 mV, ± standard error
[2] = test system: GLIC–GABAAρ1–ICD chimeras; experiment: Proton concentration–response; type: cell-based, G. violaceus GLIC / human GABAAρ1; conditions: proton activation (pH50), GLIC–GABAAρ1–ICD set, TEVC, −60 mV, ± standard error
GLIC–nAChα7–ICD chimeras = experiment: Proton concentration–response; type: cell-based, G. violaceus GLIC / human nAChRα7; conditions: proton activation (pH50), GLIC–nAChα7–ICD set, TEVC, −60 mV, ± standard error

B1: WT GLIC: wild-type Gloeobacter violaceus proton-gated pentameric ligand-gated ion channel (protein)
chain: QDMVSPPPPIADEPLTVNTGIYLIECYSLDDKAETFKVNAFLSLSWKDRRLAFDPVRSGVRVKTYEPEAIWIPEIRFVNVENARDADVVDISVSPDGTVQYLERFSARVLSPLDFRRYPFDSQTLHIYLIVRSVDTRNIVLAVDLEKVGKNDDVFLTGWDIESFTAVVKPANFALEDRLESKLDYQLRISRQYFSYIPNIILPMLFILFISWTAFWSTSYEANVTLVVSTLIAHIAFNILVETNLPKTPYMTYTGAIIFMIYLFYFVAVIEVTVQHYLKVESQPARAASITRASRIAFPVVFLLANIILAFLFFGF
modifications: left off: FLAG, C-terminal, state not stated
effect of RIC-3 co-expression on current amplitudes [1]: did not alter | −log EC50 (GLIC–Glyα1–ICD chimeras): 5.81 ± 0.05 | −log EC50 [2]: 5.81 ± 0.05 | −log EC50 (GLIC–nAChα7–ICD chimeras): 5.81 ± 0.05
